# Results taken from patent US20240016931A1 (JIANGSU HENGRUI PHARMACEUTICALS, published 2024).
# Positions count from the first letter of the chain named.
# B1: hu199-08 (antibody, human IgG1, kappa, V domains shown)
# VH: EVQLVQSGAEVKKPGASVKVSCKASGYTFTTYWMHWVRQAPGQGLEWMGMIDPSDSETTLIQKFKDRVTLTVDKSTSTAYMELSSLRSEDTAVYYCARTLDGYYDYWGQGTTVTVSS
# VL: DIQMTQSPSSLSASVGDRVTITCRASENIYSYLAWYQQKPGKAPKLLVYFAKTLAEGVPSRFSGSGSGTDFTLTISSLQPEDFATYYCQHHYGTPWTFGGGTKVEIKR
# notes: IgG1-YTE, kappa
# B2: hu199-02 (antibody, human IgG1, kappa, V domains shown)
# VH: B1 VH with L70M
# VL: B1 VL
# notes: IgG1-YTE, kappa
# B3: hu199-32 (antibody, human IgG1, kappa, V domains shown)
# VH: B1 VH with R38K, R67K
# VL: B1 VL
# notes: IgG1-YTE, kappa
# B4: hu199-28 (antibody, human IgG1, kappa, V domains shown)
# VH: B1 VH with R38K, R67K, L70M
# VL: B1 VL with V48I, G66V
# notes: IgG1-YTE, kappa
# B5: hu199-27 (antibody, human IgG1, kappa, V domains shown)
# VH: B1 VH with R38K, R67K, L70M
# VL: B1 VL with A43S, K45Q, D70Q
# notes: IgG1-YTE, kappa
# B6: hu199-25 (antibody, human IgG1, kappa, V domains shown)
# VH: B1 VH with R38K, R67K, L70M
# VL: B1 VL with V48I
# notes: IgG1-YTE, kappa
# B7: hu199-30 (antibody, human IgG1, kappa, V domains shown)
# VH: B1 VH with R38K, R67K, L70M
# VL: B1 VL with A43S, K45Q, G66V, D70Q
# notes: IgG1-YTE, kappa
# B8: hu199-24 (antibody, human IgG1, kappa, V domains shown)
# VH: B1 VH with R38K, M48I, R67K, V68A
# VL: B1 VL with A43S, K45Q, G66V, D70Q
# notes: IgG1-YTE, kappa
# B9: hu199-05 (antibody, human IgG1, kappa, V domains shown)
# VH: B1 VH with L70M
# VL: B1 VL with G66V
# notes: IgG1-YTE, kappa
# B10: hu199-21 (antibody, human IgG1, kappa, V domains shown)
# VH: B1 VH with R38K, M48I, R67K, V68A
# VL: B1 VL with A43S, K45Q, D70Q
# notes: IgG1-YTE, kappa
# B11: hu199-16 (antibody, human IgG1, kappa, V domains shown)
# VH: B1 VH with M48I, V68A
# VL: B1 VL with V48I, G66V
# notes: IgG1-YTE, kappa
# B12: hu199-29 (antibody, human IgG1, kappa, V domains shown)
# VH: B1 VH with R38K, R67K, L70M
# VL: B1 VL with G66V
# notes: IgG1-YTE, kappa
# B13: hu199-04 (antibody, human IgG1, kappa, V domains shown)
# VH: B1 VH with L70M
# VL: B1 VL with V48I, G66V
# notes: IgG1-YTE, kappa
# B14: hu199-31 (antibody, human IgG1, kappa, V domains shown)
# VH: B1 VH with R38K, R67K
# VL: B1 VL with V48I
# notes: IgG1-YTE, kappa
# B15: hu199-15 (antibody, human IgG1, kappa, V domains shown)
# VH: B1 VH with M48I, V68A
# VL: B1 VL with A43S, K45Q, D70Q
# notes: IgG1-YTE, kappa
# B16: hu199-35 (antibody, human IgG1, kappa, V domains shown)
# VH: B1 VH with R38K, R67K
# VL: B1 VL with G66V
# notes: IgG1-YTE, kappa
# B17: hu199-34 (antibody, human IgG1, kappa, V domains shown)
# VH: B1 VH with R38K, R67K
# VL: B1 VL with V48I, G66V
# notes: IgG1-YTE, kappa
# B18: hu199-13 (antibody, human IgG1, kappa, V domains shown)
# VH: B1 VH with M48I, V68A
# VL: B1 VL with V48I
# notes: IgG1-YTE, kappa
# B19: hu199-17 (antibody, human IgG1, kappa, V domains shown)
# VH: B1 VH with M48I, V68A
# VL: B1 VL with G66V
# notes: IgG1-YTE, kappa
# B20: hu199-01 (antibody, human IgG1, kappa, V domains shown)
# VH: B1 VH with L70M
# VL: B1 VL with V48I
# notes: IgG1-YTE, kappa
# B21: hu199-03 (antibody, human IgG1, kappa, V domains shown)
# VH: B1 VH with L70M
# VL: B1 VL with A43S, K45Q, D70Q
# notes: IgG1-YTE, kappa
# B22: hu199-18 (antibody, human IgG1, kappa, V domains shown)
# VH: B1 VH with M48I, V68A
# VL: B1 VL with A43S, K45Q, G66V, D70Q
# notes: IgG1-YTE, kappa
# B23: hu199-09 (antibody, human IgG1, kappa, V domains shown)
# VH: B1 VH
# VL: B1 VL with A43S, K45Q, D70Q
# notes: IgG1-YTE, kappa
# B24: hu199-12 (antibody, human IgG1, kappa, V domains shown)
# VH: B1 VH
# VL: B1 VL with A43S, K45Q, G66V, D70Q
# notes: IgG1-YTE, kappa
# B25: hu199-14 (antibody, human IgG1, kappa, V domains shown)
# VH: B1 VH with M48I, V68A
# VL: B1 VL
# notes: IgG1-YTE, kappa
# B26: hu199-23 (antibody, human IgG1, kappa, V domains shown)
# VH: B1 VH with R38K, M48I, R67K, V68A
# VL: B1 VL with G66V
# notes: IgG1-YTE, kappa
# B27: hu199-26 (antibody, human IgG1, kappa, V domains shown)
# VH: B1 VH with R38K, R67K, L70M
# VL: B1 VL
# notes: IgG1-YTE, kappa
# B28: hu199-20 (antibody, human IgG1, kappa, V domains shown)
# VH: B1 VH with R38K, M48I, R67K, V68A
# VL: B1 VL
# notes: IgG1-YTE, kappa
# B29: hu199-10 (antibody, human IgG1, kappa, V domains shown)
# VH: B1 VH
# VL: B1 VL with V48I, G66V
# notes: IgG1-YTE, kappa
# B30: hu199-06 (antibody, human IgG1, kappa, V domains shown)
# VH: B1 VH with L70M
# VL: B1 VL with A43S, K45Q, G66V, D70Q
# notes: IgG1-YTE, kappa
# B31: hu199-22 (antibody, human IgG1, kappa, V domains shown)
# VH: B1 VH with R38K, M48I, R67K, V68A
# VL: B1 VL with V48I, G66V
# notes: IgG1-YTE, kappa
# B32: hu199-07 (antibody, human IgG1, kappa, V domains shown)
# VH: B1 VH
# VL: B1 VL with V48I
# notes: IgG1-YTE, kappa
# B33: hu199-33 (antibody, human IgG1, kappa, V domains shown)
# VH: B1 VH with R38K, R67K
# VL: B1 VL with A43S, K45Q, D70Q
# notes: IgG1-YTE, kappa
# B34: hu199-19 (antibody, human IgG1, kappa, V domains shown)
# VH: B1 VH with R38K, M48I, R67K, V68A
# VL: B1 VL with V48I
# notes: IgG1-YTE, kappa
# B35: hu199-11 (antibody, human IgG1, kappa, V domains shown)
# VH: B1 VH
# VL: B1 VL with G66V
# notes: IgG1-YTE, kappa
# Biological target: T1, Fc-tagged human TSLP antigen (huTSLP-Fc) (human, biotin-labeled in the blocking assays)
# T1 construct: whole entry named; also called recombinant human TSLP-Fc
# Experiment: competition ELISA: blocks TSLP binding to TSLP receptor
row,IC50,Binder
1,0.283 nM,B1
2,0.219 nM,B2
3,0.287 nM,B3
4,0.462 nM,B4
5,0.354 nM,B5
6,0.246 nM,B6
7,0.349 nM,B7
8,0.496 nM,B8
9,0.473 nM,B9
10,0.535 nM,B10
11,0.737 nM,B11
12,0.554 nM,B12
13,0.424 nM,B13
14,0.304 nM,B14
15,0.287 nM,B15
16,0.485 nM,B16
17,0.711 nM,B17
18,0.239 nM,B18

row,IC50,Binder
1,0.611 nM,B19
2,0.191 nM,B20
3,0.208 nM,B21
4,0.481 nM,B22
5,0.273 nM,B23
6,0.37 nM,B24
7,0.311 nM,B25
8,0.337 nM,B26
9,0.365 nM,B27
10,0.4 nM,B28
11,0.391 nM,B29
12,0.381 nM,B30
13,0.345 nM,B31
14,0.283 nM,B32
15,0.205 nM,B33
16,0.658 nM,B34
17,0.365 nM,B35
